Assay results reported in patent publication US20210363255A1 (TRUEBINDING, published 2021).
Each block holds one molecule with its values, some of them ahead of it.

Columns and labels:
[1] = target: Purified human PD1 extracellular domain produced in E. coli fused to Fc (Ray Biotech) (human) (UniProt Q15116); experiment: blocking ELISA; E. coli hPD1 ECD-Fc coated, antibody at 20 ug/ml, competitor ligand biotinylated deglycosylated mPD-1 Fc
[2] = target: T1, hPD-1 peptide No. 12 (TDKLAAFPED) (human); experiment: ELISA on hPD-1 peptide array
T1 construct: also called PD1 peptide 12; peptide 12
T1 peptide: TDKLAAFPED

Chain of Purified human PD1 extracellular domain produced in E. coli fused to Fc (Ray Biotech) (human) (Q15116 25-170): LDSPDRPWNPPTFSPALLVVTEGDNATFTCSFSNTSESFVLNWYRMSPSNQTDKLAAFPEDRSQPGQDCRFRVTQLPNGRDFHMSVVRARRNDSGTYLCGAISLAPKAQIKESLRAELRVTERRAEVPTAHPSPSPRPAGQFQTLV

binding remaining, % of unblocked controls (% of unblocked controls) [1]: 86
Molecule: mab12 (LS-C131333, LS Bio) (antibody)

binding result [2]: binds
B1: IMT200 (antibody, V domains shown)
VH: QVQLQQSGPELVKPGASVKISCKASGFAFSGSWMNWMKQRPGKGLEWIGRIYPGDGDTNYNGKSKGKATLTADTSSSTAYMQLSSLTSEDSAVYFCTRSTTILADYWGQGTTLTVSS
VL: DIQMTQTTSSLSASLGDRVTISCRASQDIANYLNWYQQKPDGTVKLLIYYTSRKYSGVPSRFSGSGSGTDYSLTISNLDQEDIATYFCQQGKTLPWTFGGGTKLEIK
notes: Monoclonal raised against non-glycosylated His-tagged hPD-1 and detected with anti-mouse IgG-HRP; also called monoclonal antibody IMT200; anti-PD-1 mAb IMT200
